Experimental data taken from the supplement of paper PMC10567573.

B1: SLC6A17 (parent)
chain: HMFTPKLDKMLDPQVWREAATQVF

Variants of: B1
Test: protein stability index of a GFP-peptide fusion (GPS, HEK-293T) (PSI 1-6); higher = more stable
Conditions: c terminus: a fixed tail appended
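Note: lentivirally expressed fusions sorted by FACS into six bins by GFP to DsRed ratio, PSI derived from sequencing read proportions per bin multiplied by bin number.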

Row | Variant | protein stability index
1 | HMFTPKLDKMLPPQVWREAATQVF [D12P] | 1.91
2 | HMFTPKLDKMLFPQVWREAATQVF [D12F] | 1.63
3 | HMFTPKLDKMLEPQVWREAATQVF [D12E] | 1.39
4 | HMFTPKLDKMLKPQVWREAATQVF [D12K] | 1.63
5 | HMFTPKLDKMLCPQVWREAATQVF [D12C] | 2.67
6 | HMFTPKLDKMLQPQVWREAATQVF [D12Q] | 2.2
7 | HMFTPKLDKMLHPQVWREAATQVF [D12H] | 1.66
8 | HMFTPKLDKMLMPQVWREAATQVF [D12M] | 1.42
9 | HMFTPKLDKMLGPQVWREAATQVF [D12G] | 1.3
10 | HMFTPKLDKMLAPQVWREAATQVF [D12A] | 1.98
11 | HMFTPKLDKMLVPQVWREAATQVF [D12V] | 1.32
12 | HMFTPKLDKMLWPQVWREAATQVF [D12W] | 2.8
13 | HMFTPKLDKMLYPQVWREAATQVF [D12Y] | 1.34
14 | HMFTPKLDKMLDVQVWREAATQVF [P13V] | 2.11
15 | HMFTPKLDKMLDEQVWREAATQVF [P13E] | 2.4
16 | HMFTPKLDKMLDMQVWREAATQVF [P13M] | 2.33
17 | HMFTPKLDKMLDQQVWREAATQVF [P13Q] | 2.19
18 | HMFTPKLDKMLDIQVWREAATQVF [P13I] | 1.29
19 | HMFTPKLDKMLDNQVWREAATQVF [P13N] | 2.4
20 | HMFTPKLDKMLDYQVWREAATQVF [P13Y] | 1.69
21 | HMFTPKLDKMLDFQVWREAATQVF [P13F] | 1.67
22 | HMFTPKLDKMLDWQVWREAATQVF [P13W] | 1
23 | HMFTPKLDKMLDDQVWREAATQVF [P13D] | 1.79
24 | HMFTPKLDKMLDTQVWREAATQVF [P13T] | 1.76

Row | Variant | protein stability index
25 | HMFTPKLDKMLDKQVWREAATQVF [P13K] | 2.34
26 | HMFTPKLDKMLDLQVWREAATQVF [P13L] | 1.86
27 | HMFTPKLDKMLDSQVWREAATQVF [P13S] | 1.93
28 | HMFTPKLDKMLDHQVWREAATQVF [P13H] | 1.54
29 | HMFTPKLDKMLDCQVWREAATQVF [P13C] | 1.82
30 | HMFTPKLDKMLDAQVWREAATQVF [P13A] | 2
31 | HMFTPKLDKMLDPQVWREWATQVF [A19W] | 1.35
32 | HMFTPKLDKMLDPQVWREIATQVF [A19I] | 1.91
33 | HMFTPKLDKMLDPQVWREKATQVF [A19K] | 1.79
34 | HMFTPKLDKMLDPQVWREDATQVF [A19D] | 2.21
35 | HMFTPKLDKMLDPQVWRETATQVF [A19T] | 2.56
36 | HMFTPKLDKMLDPQVWRESATQVF [A19S] | 1.52
37 | HMFTPKLDKMLDPQVWRECATQVF [A19C] | 3.43
38 | HMFTPKLDKMLDPQVWRELATQVF [A19L] | 1.48
39 | HMFTPKLDKMLDPQVWRENATQVF [A19N] | 2.35
40 | HMFTPKLDKMLDPQVWREYATQVF [A19Y] | 2.12
41 | HMFTPKLDKMLDPQVWREMATQVF [A19M] | 1.5
42 | HMFTPKLDKMLDPQVWREQATQVF [A19Q] | 2.35
43 | HMFTPKLDKMLDPQVWREFATQVF [A19F] | 2.03
44 | HMFTPKLDKMLDPQVWREPATQVF [A19P] | 2.24
45 | HMFTPKLDKMLDPQVWREGATQVF [A19G] | 1.63
46 | HMFTPKLDKMLDPQVWRERATQVF [A19R] | 2.03
47 | HMFTPKLDKMLDPQVWREHATQVF [A19H] | 2.14
48 | HMFTPKLDKMLDPQVWREEATQVF [A19E] | 1.96

Row | Variant | protein stability index
49 | HMFTPKLDKMLDPQVWREVATQVF [A19V] | 2.15
50 | HMFTPKLDKMLDPQVWREAFTQVF [A20F] | 1.43
51 | HMFTPKLDKMLDPQVWREAITQVF [A20I] | 2.21
52 | HMFTPKLDKMLDPQVWREAHTQVF [A20H] | 1.26
53 | HMFTPKLDKMLDPQVWREADTQVF [A20D] | 2.24
54 | HMFTPKLDKMLDPQVWREAETQVF [A20E] | 2.41
55 | HMFTPKLDKMLDPQVWREACTQVF [A20C] | 1.82
56 | HMFTPKLDKMLDPQVWREAGTQVF [A20G] | 1.82
57 | HMFTPKLDKMLDPQVWREAKTQVF [A20K] | 2.38
58 | HMFTPKLDKMIDPQVWREAATQVF [L11I] | 2.39
59 | HMFTPKLDKMDDPQVWREAATQVF [L11D] | 1.87
60 | HMFTPKLDKMHDPQVWREAATQVF [L11H] | 2.23
61 | HMFTPKLDKMPDPQVWREAATQVF [L11P] | 2.16
62 | HMFTPKLDKMVDPQVWREAATQVF [L11V] | 1.87
63 | HMFTPKLDKMYDPQVWREAATQVF [L11Y] | 2.43
64 | HMFTPKLDKMNDPQVWREAATQVF [L11N] | 2.29
65 | HMFTPKLDKMFDPQVWREAATQVF [L11F] | 2.33
66 | HMFTPKLDKMQDPQVWREAATQVF [L11Q] | 2.35
67 | HMFTPKLDKMGDPQVWREAATQVF [L11G] | 2.9
68 | HMFTPKLDKMTDPQVWREAATQVF [L11T] | 2.18
69 | HMFTPKLDKMSDPQVWREAATQVF [L11S] | 2.18
70 | HMFTPKLDKMADPQVWREAATQVF [L11A] | 1.55
71 | HMFTPKLDKMWDPQVWREAATQVF [L11W] | 1.63
72 | HMFTPKLDKMRDPQVWREAATQVF [L11R] | 3.13

Row | Variant | protein stability index
73 | HMFTPKLDKMMDPQVWREAATQVF [L11M] | 2.05
74 | HMFTPKLDKMKDPQVWREAATQVF [L11K] | 2.24
75 | HMFTPKLDKMCDPQVWREAATQVF [L11C] | 2.17
76 | HMFTPKLDKMLDPQVWIEAATQVF [R17I] | 2.08
77 | HMFTPKLDKMLDPQVWCEAATQVF [R17C] | 1.39
78 | HMFTPKLDKMLDPQVWHEAATQVF [R17H] | 1.74
79 | HMFTPKLDKMLDPQVWGEAATQVF [R17G] | 2
80 | HMFTPKLDKMLDPQVWDEAATQVF [R17D] | 2.46
81 | HMFTPKLDKMLDPQVWNEAATQVF [R17N] | 2.26
82 | HMFTPKLDKMLDPQVWSEAATQVF [R17S] | 2.8
83 | HMFTPKLDKMLDPQVWLEAATQVF [R17L] | 3.05
84 | HMFTPKLDKMLDPQVWFEAATQVF [R17F] | 1.27
85 | HMFTPKLDKMLDPQVWMEAATQVF [R17M] | 2.42
86 | HMFTPKLDKMLDPQVWEEAATQVF [R17E] | 2.3
87 | HMFTPKLDKMLDPQVWQEAATQVF [R17Q] | 1.84
88 | HMFTPKLDKMLDPQVWTEAATQVF [R17T] | 1.82
89 | HMFTPKLDKMLDPQVWWEAATQVF [R17W] | 1.6
90 | HMFTPKLDKMLDPQVWVEAATQVF [R17V] | 2.18
91 | HMFTPKLDKMLDPQVWKEAATQVF [R17K] | 1.11
92 | HMFTPKLDKMLDPQVWAEAATQVF [R17A] | 1.36
93 | HMFTPKLDKMLDPQVWPEAATQVF [R17P] | 1.89
94 | HMFTPKLDKMLDPQVWYEAATQVF [R17Y] | 1.18
